# Patent publication US20220306768A1, “REDIRECTING DEATH-INDUCING SIGNAL COMPLEX (DISC) BY MODIFYING DEATH RECEPTOR AGONIST TO INDUCE CELL DEATH FOR CANCER TREATMENT” (CITY OF HOPE, priority 2021, published 2022)
# “Also recorded” adds a separate entry of the source.
# Key:
# [1] = phase I studies (Herbst et al., 2010); cited from earlier work
# A2780 cells = assay: Ovarian cancer xenograft model A2780, implanted intraperitoneally; type: in vivo; settings: intraperitoneal implant, preliminary data, FIG. 6
# Method: (§1) In vivo testing was performed using ovarian cancer xenograft models, OVCAR3 and A2780, implanted intraperitoneally.
# OVCAR3 cells = assay: Ovarian cancer xenograft model OVCAR3, implanted intraperitoneally; type: in vivo; settings: intraperitoneal implant, preliminary data, FIG. 6
# Method: as §1
# [2] = test system: TRAIL-sensitive cancer cell lines; assay: Caspase activity in cancer cell lines (FIG. 8); type: cell-based
# From the text: Of the 60 NCI cancer cell lines, 33 TRAIL-sensitive cells lines become more sensitive to TAT-TRAIL, while 17 of TRAIL-resistant cell lines become sensitive to TAT-TRAIL, only 10 cell lines remain resistant.
# Hep3B cell line = assay: Cell viability in the Hep3B cell line (FIG. 9); type: cell-based; settings: after 48 hours
# [3] = test system: NCI 60-cancer cell panel (60 different human cancer cell lines); assay: NCI 60-cancer cell panel, cell death; type: cell-based
# Method: TAT-TRAIL was tested in an NCI 60-cancer cell panel, which included 60 different human cancer cell lines set up by the National Cancer Institute for cancer therapeutics screening. Among the 60 cell lines of various cancer types, 33 were sensitive to parental TRAIL, but 27 were resistant.
# cancer cell lines = assay: Cell death induction in cancer cell lines (Example 1); type: cell-based
# From the text: Redirecting TRAIL-induced signaling away from lysosomal degradation induced massive cell death and overcame TRAIL resistance. This was done by fusing bioactive protein transduction domains (PTD—or CPPs) and signaling peptides, such as TAT peptide from HIV TAT protein, NLS (nuclear localization signal), MTS (mitochondrial targeting sequence), with TRAIL to construct a series of new TRAILs, as shown in FIG. 7.
# [4] = of the 60 NCI cancer cell lines
# [5] = among the 60 cell lines of various cancer types
molecule,measurement,setting,value
recombinant human TRAIL: recombinant human tumor necrosis factor-related apoptosis-inducing ligand tested in clinical studies,tolerability,[1],well tolerated
"TAT-TRAIL: fusion protein: TRAIL component fused to a 9-amino acid TAT peptide (RKKRRQRRR, SEQ ID NO:2); e.g. poly-His-TAT-hTRAIL94-281 (SEQ ID NO:3) (protein, TAT-TRAIL) HHHHHHRKKRRQRRRRTSEETISTVQEKQQNISPLVRERGPQRVAAHITGTRGRSNTLSSPNSKNEKALGRKINSWESSRSGHSFLSNLHLRNGELVIHEKGFYYIYSQTYFRFQEEIKENTKNDKQMVQYIYKYTSYPDPILLMKSARNSCWSKDAEYGLYSIYQGGIFELKENDRIFVSVTNEHLIDMDHEASFFGAFLVG",antitumor effects,A2780 cells,notable antitumor effects; also recorded: remarkable antitumor effects
same,antitumor effects,OVCAR3 cells,notable antitumor effects; also recorded: remarkable antitumor effects
same,caspase activity compared to control and His-tagged parental TRAIL,[2],higher caspase activity
same,IC50 (cell viability),Hep3B cell line,low
same,potency as compared to the His-tagged parental TRAIL,Hep3B cell line,approximately sixty times greater potency
same,cell death in TRAIL-sensitive cell lines compared with His-tagged parental TRAIL construct,"[3]; TRAIL-sensitive cell lines (33 of 60), FIG. 5",faster and massive cell death in all 33 TRAIL-sensitive cell lines
same,increase of potency over parental TRAIL,[3]; cell lines resistant to parental TRAIL,up to a hundred times
same,number of TRAIL-sensitive cell lines that become more sensitive,[3]; [4],33
same,number of cell lines that remain resistant,[3]; [4],10
same,number of TRAIL-resistant cell lines in which effective cell death was executed (become sensitive),[3]; out of the 27 cell lines resistant to parental TRAIL,17
same,cell death in TRAIL-resistant cancer cells,cancer cell lines; TRAIL-resistant cancer cells,induced massive cell death in TRAIL-resistant cancer cells
same,time to induce cell death,cancer cell lines; cancer cell lines,less than 1 hour
same,"potency in inducing cell death, cancer cells versus normal cells",cancer cell lines; cancer cells and normal cells,remarkable high potency in inducing cell death in cancer cells but not normal cells
"parental TRAIL: His-tagged parental TRAIL construct without TAT peptide, used as comparator (protein, UniProt P50591 39-281, looked up, extracellular domain His tag, His-tagged parental TRAIL construct without TAT peptide, used as comparator) extracellular domain: TNELKQMQDKYSKSGIACFLKEDDSYWDPNDEESMNSPCWQVKWQLRQLVRKMILRTSEETISTVQEKQQNISPLVRERGPQRVAAHITGTRGRSNTLSSPNSKNEKALGRKINSWESSRSGHSFLSNLHLRNGELVIHEKGFYYIYSQTYFRFQEEIKENTKNDKQMVQYIYKYTSYPDPILLMKSARNSCWSKDAEYGLYSIYQGGIFELKENDRIFVSVTNEHLIDMDHEASFFGAFLVG",number of cell lines resistant to the agent,[3]; [5],27
same,number of cell lines sensitive to the agent,[3]; [5],33
